From paper PMC9482650, “Quantitative fragmentomics allow affinity mapping of interactomes” (Nature Communications, 2022)
Changes are numbered by the printed parent chain.

T1: APBA3_1, O96018
T1 sequence (O96018 389-490, limits assumed, looked up): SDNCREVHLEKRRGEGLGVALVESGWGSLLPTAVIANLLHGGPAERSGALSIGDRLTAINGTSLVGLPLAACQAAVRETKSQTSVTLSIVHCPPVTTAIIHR

T2: DVL3, Q92997
T2 sequence (Q92997 244-331, limits assumed, looked up): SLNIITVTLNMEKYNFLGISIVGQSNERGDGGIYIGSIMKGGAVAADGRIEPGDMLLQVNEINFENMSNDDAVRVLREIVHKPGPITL

T3: FRMPD1, Q5SYB0
T3 sequence (Q5SYB0 52-145, limits assumed, looked up): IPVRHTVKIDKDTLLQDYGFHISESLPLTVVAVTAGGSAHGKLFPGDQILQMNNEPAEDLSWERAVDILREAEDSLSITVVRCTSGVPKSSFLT

T4: GRIP1_4, Q9Y3R0
T4 sequence (Q9Y3R0 467-571, limits assumed, looked up): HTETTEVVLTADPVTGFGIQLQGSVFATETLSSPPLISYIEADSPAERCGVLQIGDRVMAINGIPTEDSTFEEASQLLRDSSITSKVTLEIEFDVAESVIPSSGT

T5: HTRA4, P83105
T5 sequence (P83105 378-476, limits assumed, looked up): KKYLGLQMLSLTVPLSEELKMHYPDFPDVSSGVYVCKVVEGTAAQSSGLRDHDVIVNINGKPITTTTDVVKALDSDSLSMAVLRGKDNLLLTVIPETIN

T6: LIN7B, Q9HAP6
T6 sequence (Q9HAP6 88-185, limits assumed, looked up): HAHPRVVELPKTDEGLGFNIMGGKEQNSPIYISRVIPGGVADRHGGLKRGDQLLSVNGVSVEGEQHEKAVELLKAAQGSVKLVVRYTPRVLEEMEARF

T7: LIN7C, Q9NUP9
T7 sequence (Q9NUP9 88-185, limits assumed, looked up): T6 sequence (Q9HAP6 88-185, limits assumed, looked up) with A2S, D13E, V35I, V40I, Q65H, S79K, R89K, A96S

T8: LNX2_3, Q8N448
T8 sequence (Q8N448 463-564, limits assumed, looked up): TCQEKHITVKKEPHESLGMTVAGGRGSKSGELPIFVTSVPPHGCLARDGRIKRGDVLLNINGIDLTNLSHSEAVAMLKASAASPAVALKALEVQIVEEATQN

T9: MPP2, Q14168
T9 sequence (Q14168 180-250, limits assumed, looked up): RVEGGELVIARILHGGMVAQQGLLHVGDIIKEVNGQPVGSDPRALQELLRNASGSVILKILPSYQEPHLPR

T10: PDZD2_2, O15018
T10 sequence (O15018 329-429, limits assumed, looked up): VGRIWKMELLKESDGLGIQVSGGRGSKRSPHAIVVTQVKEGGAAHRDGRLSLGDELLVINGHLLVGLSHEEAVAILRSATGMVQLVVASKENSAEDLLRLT

T11: PDZD7_3, Q9H5P4
T11 sequence (Q9H5P4 857-944, limits assumed, looked up): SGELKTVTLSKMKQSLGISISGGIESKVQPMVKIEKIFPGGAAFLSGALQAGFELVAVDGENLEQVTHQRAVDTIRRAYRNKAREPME

B1: TGFA, P01135 (peptide)
chain: TACCHSETVV

target: T1, APBA3_1, O96018; test: holdup assay; parameters: key: below the threshold = too weak to quantify, mostly under pKd 3.1 to 4; settings: plain residues with an end cap or a label only (N-terminal biotin on a linker: ado-ado)

Binder | pKd
B1 | below the threshold

target: ARHGEF12, Q9NZN5-2; test: holdup assay; parameters: key: below the threshold = too weak to quantify, mostly under pKd 3.1 to 4; settings: plain residues with an end cap or a label only (N-terminal biotin on a linker: ado-ado)
Sequence (Q9NZN5 other isoform, or with tags, fused parts or gaps): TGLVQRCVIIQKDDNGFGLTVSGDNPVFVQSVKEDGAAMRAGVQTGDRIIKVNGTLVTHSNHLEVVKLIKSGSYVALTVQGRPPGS

Binder | pKd
B1 | 3.56

target: DLG4_1, P78352; test: holdup assay; parameters: key: below the threshold = too weak to quantify, mostly under pKd 3.1 to 4; settings: plain residues with an end cap or a label only (N-terminal biotin on a linker: ado-ado)
Sequence (P78352 62-152): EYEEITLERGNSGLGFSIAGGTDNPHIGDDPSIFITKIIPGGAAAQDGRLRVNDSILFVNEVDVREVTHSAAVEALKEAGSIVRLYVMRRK

Binder | pKd
B1 | 4.75

target: T2, DVL3, Q92997; test: holdup assay; parameters: key: below the threshold = too weak to quantify, mostly under pKd 3.1 to 4; settings: plain residues with an end cap or a label only (N-terminal biotin on a linker: ado-ado)

Binder | pKd
B1 | below the threshold

target: T3, FRMPD1, Q5SYB0; test: holdup assay; parameters: key: below the threshold = too weak to quantify, mostly under pKd 3.1 to 4; settings: plain residues with an end cap or a label only (N-terminal biotin on a linker: ado-ado)

Binder | pKd
B1 | below the threshold

target: FRMPD2_1, Q68DX3; test: holdup assay; parameters: key: below the threshold = too weak to quantify, mostly under pKd 3.1 to 4; settings: plain residues with an end cap or a label only (N-terminal biotin on a linker: ado-ado)
Sequence (Q68DX3 770-861): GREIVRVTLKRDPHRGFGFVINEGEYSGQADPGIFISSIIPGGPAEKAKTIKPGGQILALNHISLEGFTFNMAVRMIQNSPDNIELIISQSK

Binder | pKd
B1 | below the threshold

target: GRID2IP_1, A4D2P6; test: holdup assay; parameters: key: below the threshold = too weak to quantify, mostly under pKd 3.1 to 4; settings: plain residues with an end cap or a label only (N-terminal biotin on a linker: ado-ado)
Sequence (A4D2P6 1-87): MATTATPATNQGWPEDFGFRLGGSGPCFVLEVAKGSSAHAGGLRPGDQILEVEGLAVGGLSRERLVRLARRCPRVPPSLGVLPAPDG

Binder | pKd
B1 | below the threshold

target: T4, GRIP1_4, Q9Y3R0; test: holdup assay; parameters: key: below the threshold = too weak to quantify, mostly under pKd 3.1 to 4; settings: plain residues with an end cap or a label only (N-terminal biotin on a linker: ado-ado)

Binder | pKd
B1 | below the threshold

target: T5, HTRA4, P83105; test: holdup assay; parameters: key: below the threshold = too weak to quantify, mostly under pKd 3.1 to 4; settings: plain residues with an end cap or a label only (N-terminal biotin on a linker: ado-ado)

Binder | pKd
B1 | 3.59

target: IL16_4, Q14005; test: holdup assay; parameters: key: below the threshold = too weak to quantify, mostly under pKd 3.1 to 4; settings: plain residues with an end cap or a label only (N-terminal biotin on a linker: ado-ado)
Sequence (Q14005 1229-1329): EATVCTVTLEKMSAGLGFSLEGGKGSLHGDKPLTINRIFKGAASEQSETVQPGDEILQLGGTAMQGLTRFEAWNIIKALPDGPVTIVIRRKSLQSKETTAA

Binder | pKd
B1 | below the threshold

target: Inadl_1, Q8NI35; test: holdup assay; parameters: key: below the threshold = too weak to quantify, mostly under pKd 3.1 to 4; settings: plain residues with an end cap or a label only (N-terminal biotin on a linker: ado-ado)
Sequence (Q8NI35 113-229): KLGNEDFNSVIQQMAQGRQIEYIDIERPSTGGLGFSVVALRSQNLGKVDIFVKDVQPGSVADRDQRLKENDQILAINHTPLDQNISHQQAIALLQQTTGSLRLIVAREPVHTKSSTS

Binder | pKd
B1 | below the threshold

target: Inadl_3, Q8NI35; test: holdup assay; parameters: key: below the threshold = too weak to quantify, mostly under pKd 3.1 to 4; settings: plain residues with an end cap or a label only (N-terminal biotin on a linker: ado-ado)
Sequence (Q8NI35 359-469): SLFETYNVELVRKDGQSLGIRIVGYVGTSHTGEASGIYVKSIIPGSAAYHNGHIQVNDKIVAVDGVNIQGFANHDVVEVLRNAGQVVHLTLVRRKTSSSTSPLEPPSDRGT

Binder | pKd
B1 | 4.81

target: Inadl_6, Q8NI35; test: holdup assay; parameters: key: below the threshold = too weak to quantify, mostly under pKd 3.1 to 4; settings: plain residues with an end cap or a label only (N-terminal biotin on a linker: ado-ado)
Sequence (Q8NI35 1058-1167): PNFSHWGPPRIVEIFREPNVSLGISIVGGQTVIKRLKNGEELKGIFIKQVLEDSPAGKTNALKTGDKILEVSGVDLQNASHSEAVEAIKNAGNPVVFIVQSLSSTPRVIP

Binder | pKd
B1 | 3.55

target: Inadl_8, Q8NI35; test: holdup assay; parameters: key: below the threshold = too weak to quantify, mostly under pKd 3.1 to 4; settings: plain residues with an end cap or a label only (N-terminal biotin on a linker: ado-ado)
Sequence (Q8NI35 1425-1530): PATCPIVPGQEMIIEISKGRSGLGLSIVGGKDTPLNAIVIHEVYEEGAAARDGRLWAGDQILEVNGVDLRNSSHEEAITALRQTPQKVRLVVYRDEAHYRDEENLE

Binder | pKd
B1 | 3.72

target: Inadl_9, Q8NI35; test: holdup assay; parameters: key: below the threshold = too weak to quantify, mostly under pKd 3.1 to 4; settings: plain residues with an end cap or a label only (N-terminal biotin on a linker: ado-ado)
Sequence (Q8NI35 1530-1615): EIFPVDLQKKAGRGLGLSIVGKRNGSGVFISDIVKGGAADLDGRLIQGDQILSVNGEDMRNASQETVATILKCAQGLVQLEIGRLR

Binder | pKd
B1 | below the threshold

target: T6, LIN7B, Q9HAP6; test: holdup assay; parameters: key: below the threshold = too weak to quantify, mostly under pKd 3.1 to 4; settings: plain residues with an end cap or a label only (N-terminal biotin on a linker: ado-ado)

Binder | pKd
B1 | below the threshold

target: T7, LIN7C, Q9NUP9; test: holdup assay; parameters: key: below the threshold = too weak to quantify, mostly under pKd 3.1 to 4; settings: plain residues with an end cap or a label only (N-terminal biotin on a linker: ado-ado)

Binder | pKd
B1 | below the threshold

target: LNX1_3, Q8TBB1; test: holdup assay; parameters: key: below the threshold = too weak to quantify, mostly under pKd 3.1 to 4; settings: plain residues with an end cap or a label only (N-terminal biotin on a linker: ado-ado)
Sequence (Q8TBB1 500-596): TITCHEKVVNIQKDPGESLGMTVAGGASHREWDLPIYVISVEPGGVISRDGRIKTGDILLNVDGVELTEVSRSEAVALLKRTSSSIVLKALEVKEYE

Binder | pKd
B1 | below the threshold

target: T8, LNX2_3, Q8N448; test: holdup assay; parameters: key: below the threshold = too weak to quantify, mostly under pKd 3.1 to 4; settings: plain residues with an end cap or a label only (N-terminal biotin on a linker: ado-ado)

Binder | pKd
B1 | below the threshold

target: MAGI2_5, Q86UL8; test: holdup assay; parameters: key: below the threshold = too weak to quantify, mostly under pKd 3.1 to 4; settings: plain residues with an end cap or a label only (N-terminal biotin on a linker: ado-ado)
Sequence (Q86UL8 915-1017): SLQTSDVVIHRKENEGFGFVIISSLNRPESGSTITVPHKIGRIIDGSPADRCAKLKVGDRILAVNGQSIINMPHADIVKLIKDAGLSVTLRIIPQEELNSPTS

Binder | pKd
B1 | 4.36

target: MAST2, Q6P0Q8; test: holdup assay; parameters: key: below the threshold = too weak to quantify, mostly under pKd 3.1 to 4; settings: plain residues with an end cap or a label only (N-terminal biotin on a linker: ado-ado)
Sequence (Q6P0Q8 1099-1202): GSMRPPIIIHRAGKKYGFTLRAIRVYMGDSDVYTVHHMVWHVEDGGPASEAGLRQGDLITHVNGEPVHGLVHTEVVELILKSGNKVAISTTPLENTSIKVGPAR

Binder | pKd
B1 | 5.1

target: T9, MPP2, Q14168; test: holdup assay; parameters: key: below the threshold = too weak to quantify, mostly under pKd 3.1 to 4; settings: plain residues with an end cap or a label only (N-terminal biotin on a linker: ado-ado)

Binder | pKd
B1 | below the threshold

target: NHERF4_1, Q86UT5-2; test: holdup assay; parameters: key: below the threshold = too weak to quantify, mostly under pKd 3.1 to 4; settings: plain residues with an end cap or a label only (N-terminal biotin on a linker: ado-ado)
Sequence (Q86UT5 other isoform, or with tags, fused parts or gaps): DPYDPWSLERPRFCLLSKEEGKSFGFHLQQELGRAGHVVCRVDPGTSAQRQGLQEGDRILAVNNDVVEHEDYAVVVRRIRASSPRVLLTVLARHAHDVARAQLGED

Binder | pKd
B1 | below the threshold

target: NHERF4_4, Q86UT5; test: holdup assay; parameters: key: below the threshold = too weak to quantify, mostly under pKd 3.1 to 4; settings: plain residues with an end cap or a label only (N-terminal biotin on a linker: ado-ado)
Sequence (Q86UT5 464-550): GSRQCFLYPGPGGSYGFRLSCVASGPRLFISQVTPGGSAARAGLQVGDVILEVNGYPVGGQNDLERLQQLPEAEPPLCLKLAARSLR

Binder | pKd
B1 | below the threshold

target: T10, PDZD2_2, O15018; test: holdup assay; parameters: key: below the threshold = too weak to quantify, mostly under pKd 3.1 to 4; settings: plain residues with an end cap or a label only (N-terminal biotin on a linker: ado-ado)

Binder | pKd
B1 | 4.32

target: T11, PDZD7_3, Q9H5P4; test: holdup assay; parameters: key: below the threshold = too weak to quantify, mostly under pKd 3.1 to 4; settings: plain residues with an end cap or a label only (N-terminal biotin on a linker: ado-ado)

Binder | pKd
B1 | 5.04
